Experimental data: PMC11765575 (International Journal of Molecular Sciences, 2025)

Target: T1, osteocalcin C-terminal 7-residue peptide BGP-C7 (human)
T1 construct: C-terminal 7 residues of human osteocalcin (bone Gla protein, BGP), printed as NH2-RRFYGPV-COOH; Free N- and C-termini as printed (NH2-RRFYGPV-COOH); also called antigen peptide; osteocalcin C-terminal peptide
T1 chain: RRFYGPV
Experiment: crystal structure; KTM219 Fab with three molar excess BGP-C7, complex purified by gel filtration; crystallised at 20 °C, sitting drop, 0.07 M citric acid, 0.03 M Bis-tris propane (pH 3.4), 16% w/v PEG 3350, microseeding; refined to 2.30 Å
Conditions: both partners purified

binding result: binds
B1: Fab fragment of anti-osteocalcin C-terminal peptide antibody KTM219 (Fab, V domains shown)
VH: QVKLQQSGAEFVKAGASVKLSCKTSGYTFNNYWIHWVKQSPGQGLEWIGEIDPSDGYSNYNQKFKGKATLTVDKSSSTAYMHLNSLTSEDSAVYYCTSSTSVGGSWGQGTTVTVSS
VL: DIELTQSPLSLPVSLGDQASISCTSSQSLLHSNGDTYLHWYLQKPGQSPKLLIYTLSNRFSGVPDRFSGSGSGTDFTLKISRVEAADLGIYFCSQTTHVPYTFGGGTKLEIK
notes: heavy chain (VH-CH1) of KTM219 Fab; light chain (VL-CL) of KTM219 Fab; also called KTM219 Fab
